Earlier results, collected in PMC1562422.

What was measured:
[1] = biological target: IL2 receptor β chain (Homo sapiens) (UniProt P14784); assay: ITC
[2] = biological target: IL2 receptor α chain (Homo sapiens) (UniProt P01589); assay: ITC
[3] = biological target: IL2 receptor γ chain (Homo sapiens) (UniProt P31785)
[4] = biological target: IL2 receptor β chain (Homo sapiens) (UniProt P14784); assay: SPR

Sequence of IL2 (P60568 21-153): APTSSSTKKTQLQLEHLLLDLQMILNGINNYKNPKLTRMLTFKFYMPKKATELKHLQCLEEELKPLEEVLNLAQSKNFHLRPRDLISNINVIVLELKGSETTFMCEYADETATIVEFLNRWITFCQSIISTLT
Sequence of UniProt P14784 (P14784 27-240): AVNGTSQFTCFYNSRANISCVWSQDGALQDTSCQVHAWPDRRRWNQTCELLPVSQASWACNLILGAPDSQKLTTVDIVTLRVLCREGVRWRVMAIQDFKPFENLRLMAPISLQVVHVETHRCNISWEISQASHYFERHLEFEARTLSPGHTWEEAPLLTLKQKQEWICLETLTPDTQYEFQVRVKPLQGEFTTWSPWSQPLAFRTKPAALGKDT
Sequence of UniProt P31785 (P31785 23-262): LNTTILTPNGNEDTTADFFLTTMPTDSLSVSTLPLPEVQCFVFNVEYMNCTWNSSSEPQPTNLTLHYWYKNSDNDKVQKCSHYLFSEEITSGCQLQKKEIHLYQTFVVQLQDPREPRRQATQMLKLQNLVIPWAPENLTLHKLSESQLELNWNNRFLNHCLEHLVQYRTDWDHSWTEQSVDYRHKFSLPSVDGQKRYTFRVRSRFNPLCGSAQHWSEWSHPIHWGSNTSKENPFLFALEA

| Substance | Kd [1] [µM] | Kd [2] [µM] | Kd [3] [µM] | Kd [4] [µM] |
| --- | --- | --- | --- | --- |
| IL2 receptor α chain (from UniProt P01589) | 0.278 | – | – | – |
| IL2 (from UniProt P60568) | 0.144 | 0.01 | > 700 | 0.45 |
